# Data published in patent publication US7968081B2, “Peptide for diagnosing, preventing and treating atherosclerosis and uses thereof” (Kyungpook National University Industry—Academic Cooperation …, priority 2007, dated 2011).
# Ends that are not written are not given here. * marks the point of attachment. FITC = O=C1OC2(c3ccc(O)cc3Oc3cc(O)ccc32)c2ccc(NC(=S)*)cc21
# Columns and labels:
# [1] = test system: atherosclerotic plaque tissues; assay: In vivo atherosclerotic targeting of fluorescent dye-conjugated peptide (fluorescence microscopy of frozen sections); conditions: atherosclerosis-induced mice, circulation 15 min
# Excerpt: C57BL/6 mice (Ldlr−/−) into which deficiency of a low-density lipoprotein (LDL) receptor was introduced by a genetic engineering technique were fed daily for 10 weeks with 3 g of high-cholesterol diet, thereby inducing atherosclerosis in animals. The high-cholesterol diet was a special animal feed containing 1.25% cholesterol, 15% fat and 0.5% cholate (Oriental Yeast Co., Japan).
# Here, the peptide was synthesized by tagging an N-terminus of the peptide with FITC (fluorescein isothiocyanate) as a green fluorescent dye. The synthesized FITC-CRKRLDRNC peptide and a control peptide (FITC-NSSVDK) at final blood concentrations of 50 μM were injected into the atherosclerosis-induced mice via the left ventricle of animals, followed by circulation for 15 min. Thereafter, the aortae were removed from each mouse, and frozen sections were prepared, followed by Oil Red O (fat marker, Sigma-Aldrich, USA) staining or vWF (vascular endothelial cell marker, 1:5000 dilution, Abcam, USA) and Mac-3 (macrophage marker, 1:50 dilution, BD, USA) staining (Matter et al., Circulation Research, 95:1225-1233, 2004). In order to stain nuclei in tissues, a mounting medium containing a nuclear staining dye, 4′,6-diamidino-2-phenylindole (DAPI) (manufactured by Molecular Probe, USA) was treated on a slide, according to a conventional method known in the art, followed by fluorescence microscopic examination.
# IL-4R [2] = molecular target: T1, IL-4R (Mus musculus, UniProt P16382); assay: Histological distribution of peptide and IL-4R in atherosclerotic plaque tissues; format: in vivo, mice; conditions: 50 μM final concentration in blood, circulation 15 min; IL-4R antibody staining
# T1 construct: from tissue; host or cells: aorta / atherosclerotic plaque of Ldlr-/- mice
# T1 sequence (P16382 26-810): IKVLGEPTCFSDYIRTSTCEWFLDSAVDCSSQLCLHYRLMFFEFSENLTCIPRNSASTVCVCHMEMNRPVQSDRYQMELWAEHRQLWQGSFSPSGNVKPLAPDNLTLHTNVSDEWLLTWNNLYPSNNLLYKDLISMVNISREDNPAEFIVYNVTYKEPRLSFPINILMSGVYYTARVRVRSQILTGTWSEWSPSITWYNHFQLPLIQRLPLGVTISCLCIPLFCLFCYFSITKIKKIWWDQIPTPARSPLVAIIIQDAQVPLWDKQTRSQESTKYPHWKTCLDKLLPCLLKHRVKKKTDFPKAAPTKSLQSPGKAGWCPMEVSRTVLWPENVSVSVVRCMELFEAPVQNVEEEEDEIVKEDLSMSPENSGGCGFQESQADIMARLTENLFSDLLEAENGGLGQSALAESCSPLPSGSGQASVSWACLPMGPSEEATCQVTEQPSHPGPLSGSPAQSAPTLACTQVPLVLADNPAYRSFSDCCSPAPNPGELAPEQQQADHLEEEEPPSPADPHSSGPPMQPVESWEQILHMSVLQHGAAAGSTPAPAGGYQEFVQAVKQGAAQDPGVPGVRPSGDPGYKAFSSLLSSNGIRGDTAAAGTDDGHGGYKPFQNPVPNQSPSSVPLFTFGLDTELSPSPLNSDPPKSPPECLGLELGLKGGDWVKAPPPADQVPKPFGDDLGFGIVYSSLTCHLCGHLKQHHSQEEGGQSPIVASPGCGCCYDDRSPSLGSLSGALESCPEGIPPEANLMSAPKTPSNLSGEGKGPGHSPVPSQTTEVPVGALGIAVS
# Method: In order to ascertain a receptor that binds to the peptide of the present invention, binding of the peptide was examined for various receptors. Out of those receptors, the results for IL-4R are as follows. First, fluorescein (FITC)-conjugated peptide of the present invention at a final concentration of 50 μM was injected into the blood of experimental animals, followed by circulation for 15 min. Thereafter, the aortae were removed from animals, and a frozen section slide was prepared. Then, the tissue section was stained by reaction of the section with antibodies (1:200 dilution, BD, USA) directed against IL-4R, at room temperature for 1 hour. In order to stain the tissue nuclei, DAPI was treated on the slide which was then examined under a fluorescence microscope (Joshi et al., Cancer Research, 61:8058-8061, 2001).
# IL-4R [3] = molecular target: T2, IL-4R (Homo sapiens, UniProt P24394); assay: Bindability of peptide to IL-4R-expressing CHO-K1 cells (fluorescence microscopy); format: binding; conditions: 10 μM peptide, room temperature, 1 hour
# T2 sequence (P24394 26-825): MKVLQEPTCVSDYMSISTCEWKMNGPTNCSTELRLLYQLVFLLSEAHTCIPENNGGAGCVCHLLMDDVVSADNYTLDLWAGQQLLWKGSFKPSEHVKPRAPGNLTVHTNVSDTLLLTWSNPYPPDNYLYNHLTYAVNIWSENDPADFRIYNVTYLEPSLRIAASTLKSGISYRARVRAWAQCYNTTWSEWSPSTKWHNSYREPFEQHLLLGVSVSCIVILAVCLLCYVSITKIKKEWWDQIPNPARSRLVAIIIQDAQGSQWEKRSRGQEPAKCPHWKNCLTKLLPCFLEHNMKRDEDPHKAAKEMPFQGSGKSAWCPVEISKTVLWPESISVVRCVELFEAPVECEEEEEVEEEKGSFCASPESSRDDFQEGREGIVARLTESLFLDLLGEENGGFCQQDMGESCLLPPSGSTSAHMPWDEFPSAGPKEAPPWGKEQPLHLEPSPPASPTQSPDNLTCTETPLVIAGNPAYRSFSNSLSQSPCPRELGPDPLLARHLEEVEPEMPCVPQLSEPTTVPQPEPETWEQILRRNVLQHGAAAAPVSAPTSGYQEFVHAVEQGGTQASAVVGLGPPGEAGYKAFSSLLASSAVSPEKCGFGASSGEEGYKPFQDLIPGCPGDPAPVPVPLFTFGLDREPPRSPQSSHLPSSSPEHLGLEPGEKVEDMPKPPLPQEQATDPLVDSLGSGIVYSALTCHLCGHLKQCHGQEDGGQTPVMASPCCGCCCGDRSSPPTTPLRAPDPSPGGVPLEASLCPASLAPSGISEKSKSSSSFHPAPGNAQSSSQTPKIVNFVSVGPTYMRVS
# Excerpt: In order to further confirm roles of IL-4R as the receptor for the peptide of the present invention, a plasmid capable of expressing IL-4R (Cat. #TC119877, Origene, USA) was introduced into IL-4R-deficient CHO-K1 cells according to a conventional method known in the art, followed by expression of IL-4R, and binding of IL-4R with the peptide of the present invention was examined.
# The cells were stained with antibodies (1:200 dilution) directed against. IL-4R and cell nuclei were stained with DAPI, followed by fluorescence microscopic examination. As a result, a large amount of IL-4R (red fluorescence) was present on the cell surface (FIG. 6B). Next, CHO-K1 and CHO-K1/IL-4R cells were reacted with 10 μM of the FITC-C-RKRLDRNC peptide at room temperature for 1 hour.
# IL-4R [4] = molecular target: T2, IL-4R; assay: Bindability of peptide to HT-1376 cells with inhibited expression of IL-4R (siRNA); format: binding; set-up: HT-1376 cells that essentially show constitutive expression of IL-4R; endogenous in cells; host or cells: HT-1376
# Method: Silencing RNA for IL-4R (Cat. #16708A, Ambion, USA) was introduced into HT-1376 cells that essentially show constitutive expression of IL-4R, according to a conventional method known in the art, and treated for 24 hours to thereby result in substantially no expression of IL-4R, followed by evaluation of peptide binding. More specifically, 10 nM of IL-4R silencing RNA synthesized by the manufacturer was mixed with a siPORT™ NeoFX™ lipid transfection agent (Ambion, USA), and the mixture was treated for 24 hours on HT-1376 cells grown in a 4-well chamber slide, such that IL-4R silencing RNA is incorporated into the cells. Thereafter, the culture medium was replaced with one containing 10% bovine serum and the cells were recovered for 24 hours. After staining of cells with IL-4R antibodies and nuclear DAPI staining under the same conditions as in FIG. 6, a cellular expression level of IL-4R was examined. After IL-4R staining, the FITC-CRKRLDRNC peptide was reacted with the cells under the same conditions as in FIG. 6, and a binding degree of the peptide was measured.
substance,measurement,setting,value
"FITC-CRKRLDRNC ({FITC}-CRKRLDRNC; cysteine pairing not given here) [FITC-CRKRLDRNC peptide, called the peptide of the present invention in b132]",peptide detection in cerebral tissues,[1]; 50 μM,not detected
same,peptide detection in pulmonary tissues,[1]; 50 μM,not detected
same,peptide found in aortic atherosclerotic plaque tissues (green fluorescence),[1]; final blood concentration 50 μM via left ventricle,more targeted in plaque tissues
same,position of peptide (green fluorescence) relative to IL-4R (red fluorescence) in atherosclerotic plaque tissues,IL-4R [2],almost identically positioned
same,binding to CHO-K1/IL-4R cells (IL-4R-expressing),IL-4R [3],green fluorescence due to the peptide
same,binding to IL-4R-deficient CHO-K1 cells,IL-4R [3],no fluorescence arising from the peptide
same,binding to HT-1376/siIL-4R cells (IL-4R silencing RNA-treated),IL-4R [4]; same conditions as in FIG. 6,substantially no binding
same,binding to mock silencing RNA-treated HT-1376 cells,IL-4R [4]; same conditions as in FIG. 6,good bindability
same,binding to HT-1376 cells (constitutive expression of IL-4R),"IL-4R [4]; same conditions as in FIG. 6 (10 μM, room temperature, 1 hour)",active binding
